PMC5916898

Columns and labels:
[1] = target: GST-KLF4-ZF (UniProt O43474); test: fluorescence polarization; settings: Pull-down: 150 mM NaCl (or LiCl), 50 mM Tris pH 8, 0.25% NP-40, 1 mM TCEP, protease inhibitors, 4 C, 2 h; EMSA with lysate in same buffer, RT 15 min; FP in …
[2] = target: GST-KLF4-ZF (UniProt O43474); test: fluorescence intensity (de-quenching); settings: Pull-down: 150 mM NaCl (or LiCl), 50 mM Tris pH 8, 0.25% NP-40, 1 mM TCEP, protease inhibitors, 4 C, 2 h; EMSA with lysate in same buffer, RT 15 min; FP in …
[3] = target: SMARCA4 (human (HeLa)) (UniProt P51532); test: pull-down TMT-MS titration; settings: apparent, Pull-down: 150 mM NaCl (or LiCl), 50 mM Tris pH 8, 0.25% NP-40, 1 mM TCEP, protease inhibitors, 4 C, 2 h, EMSA with lysate in same buffer, RT 15 min, FP in …
[4] = target: SMARCA5 (human (HeLa)) (UniProt O60264); test: pull-down TMT-MS titration; settings: apparent, Pull-down: 150 mM NaCl (or LiCl), 50 mM Tris pH 8, 0.25% NP-40, 1 mM TCEP, protease inhibitors, 4 C, 2 h, EMSA with lysate in same buffer, RT 15 min, FP in …
[5] = tested on: BAZ1A (human (HeLa)); test: pull-down TMT-MS titration; settings: apparent, Pull-down: 150 mM NaCl (or LiCl), 50 mM Tris pH 8, 0.25% NP-40, 1 mM TCEP, protease inhibitors, 4 C, 2 h, EMSA with lysate in same buffer, RT 15 min, FP in …
[6] = tested on: C17orf49 (human (HeLa)); test: pull-down TMT-MS titration; settings: apparent; histone H3K4me3; Pull-down: 150 mM NaCl (or LiCl), 50 mM Tris pH 8, 0.25% NP-40, 1 mM TCEP, protease inhibitors, 4 C, 2 h; EMSA with lysate in same buffer, RT 15 min; FP in …
[7] = tested on: SMARCA2 (human (HeLa)); test: pull-down TMT-MS titration; settings: apparent, Pull-down: 150 mM NaCl (or LiCl), 50 mM Tris pH 8, 0.25% NP-40, 1 mM TCEP, protease inhibitors, 4 C, 2 h, EMSA with lysate in same buffer, RT 15 min, FP in …
[8] = tested on: BPTF (human (HeLa)); test: pull-down TMT-MS titration; settings: apparent, Pull-down: 150 mM NaCl (or LiCl), 50 mM Tris pH 8, 0.25% NP-40, 1 mM TCEP, protease inhibitors, 4 C, 2 h, EMSA with lysate in same buffer, RT 15 min, FP in …
[9] = tested on: BAZ1B (human (HeLa)); test: pull-down TMT-MS titration; settings: apparent, Pull-down: 150 mM NaCl (or LiCl), 50 mM Tris pH 8, 0.25% NP-40, 1 mM TCEP, protease inhibitors, 4 C, 2 h, EMSA with lysate in same buffer, RT 15 min, FP in …
[10] = tested on: PHF10 (human (HeLa)); test: pull-down TMT-MS titration; settings: apparent; histone H3K9ac K14ac; Pull-down: 150 mM NaCl (or LiCl), 50 mM Tris pH 8, 0.25% NP-40, 1 mM TCEP, protease inhibitors, 4 C, 2 h; EMSA with lysate in same buffer, RT 15 min; FP in …
[11] = target: H3K9AcK14Ac modified di-nucleosome (human) (UniProt P68431); test: affinity purification with mass spectrometry; titration series of ten concentrations of biotinylated recombinant di-nucleosome on streptavidin beads; 100 ug HeLa nuclear lysate per pulldown in PBB (150 mM NaCl, 50 mM Tris pH 8, 0.25% NP-40, 1 mM TCEP), 2 h at 4 °C; 10-plex TMT, SPS-MS3; apparent Kd from a Hill-like fit, triplicate, r^2 > 0.9

SMARCA4 (human (HeLa)), sequence (P51532 whole entry): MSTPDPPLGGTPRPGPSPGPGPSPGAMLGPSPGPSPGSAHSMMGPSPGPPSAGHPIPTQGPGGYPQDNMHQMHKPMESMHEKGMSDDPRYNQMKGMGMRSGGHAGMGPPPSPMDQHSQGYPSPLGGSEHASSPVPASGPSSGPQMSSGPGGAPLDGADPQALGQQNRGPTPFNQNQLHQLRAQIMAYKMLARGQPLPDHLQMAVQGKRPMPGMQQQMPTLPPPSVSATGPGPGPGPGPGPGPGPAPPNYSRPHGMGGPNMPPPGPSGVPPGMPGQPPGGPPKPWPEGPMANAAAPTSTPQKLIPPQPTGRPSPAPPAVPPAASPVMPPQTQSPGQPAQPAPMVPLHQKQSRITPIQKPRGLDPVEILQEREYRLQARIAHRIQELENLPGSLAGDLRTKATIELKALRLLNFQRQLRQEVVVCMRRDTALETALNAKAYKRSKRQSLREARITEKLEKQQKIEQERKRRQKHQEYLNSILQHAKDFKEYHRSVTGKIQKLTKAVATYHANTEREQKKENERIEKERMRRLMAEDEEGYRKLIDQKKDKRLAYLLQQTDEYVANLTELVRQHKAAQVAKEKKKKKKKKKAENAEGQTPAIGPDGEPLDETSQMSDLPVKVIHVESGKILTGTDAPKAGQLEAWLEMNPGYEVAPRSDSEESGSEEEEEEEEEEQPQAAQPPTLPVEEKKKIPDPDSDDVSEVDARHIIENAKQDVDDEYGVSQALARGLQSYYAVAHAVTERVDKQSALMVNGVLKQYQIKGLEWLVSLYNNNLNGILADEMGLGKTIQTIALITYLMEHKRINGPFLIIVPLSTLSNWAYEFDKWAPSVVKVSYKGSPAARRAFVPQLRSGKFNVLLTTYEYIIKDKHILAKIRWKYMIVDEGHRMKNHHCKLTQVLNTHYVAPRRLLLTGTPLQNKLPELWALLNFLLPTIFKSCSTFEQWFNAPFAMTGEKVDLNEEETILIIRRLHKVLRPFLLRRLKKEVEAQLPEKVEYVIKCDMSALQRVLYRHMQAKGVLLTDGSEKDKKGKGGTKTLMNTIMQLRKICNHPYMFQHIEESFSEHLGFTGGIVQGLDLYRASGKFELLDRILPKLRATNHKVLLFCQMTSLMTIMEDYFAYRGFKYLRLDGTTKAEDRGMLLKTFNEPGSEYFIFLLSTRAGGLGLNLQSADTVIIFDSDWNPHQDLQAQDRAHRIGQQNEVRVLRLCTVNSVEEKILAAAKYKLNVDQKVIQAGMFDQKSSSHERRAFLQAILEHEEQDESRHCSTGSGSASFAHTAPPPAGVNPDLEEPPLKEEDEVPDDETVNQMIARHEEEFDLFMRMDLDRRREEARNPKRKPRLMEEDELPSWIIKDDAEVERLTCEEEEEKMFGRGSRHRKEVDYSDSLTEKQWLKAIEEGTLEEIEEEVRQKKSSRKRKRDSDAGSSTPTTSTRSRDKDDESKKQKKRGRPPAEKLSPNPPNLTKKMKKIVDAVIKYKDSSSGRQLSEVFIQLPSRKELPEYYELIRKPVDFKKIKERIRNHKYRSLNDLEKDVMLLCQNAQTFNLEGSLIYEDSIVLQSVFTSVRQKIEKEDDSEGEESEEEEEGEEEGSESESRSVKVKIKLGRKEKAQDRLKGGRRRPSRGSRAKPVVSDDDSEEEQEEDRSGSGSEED
SMARCA5 (human (HeLa)), sequence (O60264 2-1052): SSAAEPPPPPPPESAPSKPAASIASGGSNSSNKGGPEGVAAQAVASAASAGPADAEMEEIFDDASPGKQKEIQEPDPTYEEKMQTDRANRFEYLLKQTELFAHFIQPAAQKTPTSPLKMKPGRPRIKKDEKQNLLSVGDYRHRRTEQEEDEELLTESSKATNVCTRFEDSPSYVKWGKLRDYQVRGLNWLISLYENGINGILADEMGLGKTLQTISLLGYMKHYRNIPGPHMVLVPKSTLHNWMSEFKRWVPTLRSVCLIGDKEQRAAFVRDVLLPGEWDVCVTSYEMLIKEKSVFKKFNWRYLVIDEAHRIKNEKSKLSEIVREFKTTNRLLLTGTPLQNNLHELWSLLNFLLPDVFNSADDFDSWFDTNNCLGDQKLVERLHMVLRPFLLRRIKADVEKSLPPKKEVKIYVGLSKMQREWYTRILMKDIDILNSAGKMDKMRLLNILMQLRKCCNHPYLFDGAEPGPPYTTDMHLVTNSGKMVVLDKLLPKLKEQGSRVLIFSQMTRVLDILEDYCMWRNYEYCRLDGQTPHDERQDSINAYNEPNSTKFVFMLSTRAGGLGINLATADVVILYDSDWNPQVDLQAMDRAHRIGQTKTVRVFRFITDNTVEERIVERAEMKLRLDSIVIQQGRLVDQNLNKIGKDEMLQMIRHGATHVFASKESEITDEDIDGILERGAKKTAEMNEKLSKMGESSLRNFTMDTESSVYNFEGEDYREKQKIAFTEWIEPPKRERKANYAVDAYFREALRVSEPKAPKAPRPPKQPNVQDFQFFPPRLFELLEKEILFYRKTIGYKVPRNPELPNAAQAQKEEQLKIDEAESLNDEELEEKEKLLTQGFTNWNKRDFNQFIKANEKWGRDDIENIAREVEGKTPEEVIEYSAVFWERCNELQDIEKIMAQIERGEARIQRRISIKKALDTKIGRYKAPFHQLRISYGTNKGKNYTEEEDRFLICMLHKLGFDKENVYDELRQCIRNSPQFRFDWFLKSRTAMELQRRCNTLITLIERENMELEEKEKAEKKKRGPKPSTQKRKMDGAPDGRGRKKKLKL
GST-KLF4-ZF, sequence (O43474 whole entry): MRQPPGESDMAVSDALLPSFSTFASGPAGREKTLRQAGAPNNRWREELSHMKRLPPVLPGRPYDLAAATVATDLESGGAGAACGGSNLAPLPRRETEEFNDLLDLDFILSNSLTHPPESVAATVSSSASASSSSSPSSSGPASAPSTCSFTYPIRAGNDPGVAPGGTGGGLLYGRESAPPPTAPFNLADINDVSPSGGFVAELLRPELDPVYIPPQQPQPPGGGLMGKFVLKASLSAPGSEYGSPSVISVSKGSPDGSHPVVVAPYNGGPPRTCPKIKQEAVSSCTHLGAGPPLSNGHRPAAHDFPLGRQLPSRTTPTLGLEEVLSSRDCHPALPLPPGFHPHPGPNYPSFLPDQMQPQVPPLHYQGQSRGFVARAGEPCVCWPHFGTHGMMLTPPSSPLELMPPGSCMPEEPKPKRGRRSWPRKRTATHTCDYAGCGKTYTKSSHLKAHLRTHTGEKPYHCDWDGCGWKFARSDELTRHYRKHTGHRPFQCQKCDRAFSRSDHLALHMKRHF
PHF10, sequence (Q8WUB8 whole entry): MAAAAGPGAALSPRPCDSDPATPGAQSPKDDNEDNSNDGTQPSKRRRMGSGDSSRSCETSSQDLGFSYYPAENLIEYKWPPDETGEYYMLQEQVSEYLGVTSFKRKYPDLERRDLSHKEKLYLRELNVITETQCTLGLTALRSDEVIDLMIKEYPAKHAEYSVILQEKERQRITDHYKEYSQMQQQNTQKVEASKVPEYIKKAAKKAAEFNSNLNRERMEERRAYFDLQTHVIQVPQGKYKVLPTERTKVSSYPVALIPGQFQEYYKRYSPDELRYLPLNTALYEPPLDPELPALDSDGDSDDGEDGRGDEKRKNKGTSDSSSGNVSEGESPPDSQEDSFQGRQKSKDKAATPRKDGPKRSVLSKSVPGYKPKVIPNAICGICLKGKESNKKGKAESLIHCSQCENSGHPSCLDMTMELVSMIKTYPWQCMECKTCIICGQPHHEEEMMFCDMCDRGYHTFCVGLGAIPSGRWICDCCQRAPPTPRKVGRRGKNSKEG

GAGAGCCCCGCCCCCTGGCT (double strand) [SP/KLF wild-type Cy5]
Kd [1]: 21.8 nM | Kd [2]: 20.2 nM

H3K4me3 di-nucleosome
Kd ([3]; histone H3K4me3): 123 nM | Kd ([4]; histone H3K4me3): 82.4 nM | Kd ([5]; histone H3K4me3): 100 nM | Kd [6]: 68.7 nM | Kd ([7]; histone H3K4me3): 51.8 nM | Kd ([8]; histone H3K4me3): 54 nM | Kd ([9]; histone H3K4me3): 90.6 nM

H3K9AcK14Ac di-nucleosome
Kd ([3]; histone H3K9ac K14ac): 68.7 nM | Kd [10]: 35 nM | Kd ([4]; histone H3K9ac K14ac): 52.6 nM | Kd ([5]; histone H3K9ac K14ac): 114 nM | Kd ([7]; histone H3K9ac K14ac): 35.9 nM | Kd ([8]; histone H3K9ac K14ac): 27.9 nM | Kd ([9]; histone H3K9ac K14ac): 15 nM

PHF10 (from UniProt Q8WUB8 1-498) (natural protein)
Kd [11]: 35 nM

unmodified H3 di-nucleosome
Kd [3]: 174 nM | Kd [4]: 102 nM | Kd [5]: 151 nM | Kd [7]: 162 nM | Kd [8]: 53.2 nM | Kd [9]: 122 nM
